In article PMC5873240:

How the values were obtained:
Kv7.2-hAB[Δ6L] = test: NMR solution structure
Kv7.2-hABCD = test: NMR spectra

Substance	stoichiometry N (Kv7.2-hAB[Δ6L])	stoichiometry N (Kv7.2-hABCD)
calmodulin (from UniProt P0DP23 1-149) (natural protein)	1	
Kv7.2-hABCD (domain or fragment)		4
